The values that follow come from the supplement of paper PMC7877785.

A short description of the data set: self-splicing fitness, log relative to wild type (ln ratio); higher = more splicing; Tetrahymena group I intron in knt gene, E. coli kanamycin selection, DiMSum; sequences stand for … in CUCUCU…GGAGGGAAAAGUUAUCAGGCAUGCACCUGGUAGCUAGUCUUUAAACCAAUAGAUUGCAUCGGUUUAAAAGGCAAGACCGUCAAAUUGCGGGAAAGGGGUCAACAGCCGUUCAGUACCAAGUCUCAGGGGAAACUUUGAGAUGGCCUUGCAAAGGGUAUGGUAAUAAGCUGACGGACAUGGUCCUAACCACGCAGCCAAGUCCUAAGUCAACAGAUCUUCUGUUGAUAUGGAUGCAGUUCACAGACUAAAUGUCGGUCGGGGAAGAUGUAUUCUUCUCAUAAGAUAUAGUCGGACCUCUCCUUAAUGGGAGCUAGCGGAUGAAGUGAUGCAACACUGGAGCCGCUGGGAACUAAUUUGUAUGCGAAAGUAUAUUGAUUAGUUUUGGAGUACUCGUGGUCG
The procedure, abridged:
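Fitness was computed with DiMSum as the error-weighted combination of replicate fold changes, kanamycin versus none, each normalised to wild type. The library randomised all eight intron nucleotides of the P1ex region, with the intron placed in the knt kanamycin-resistance gene on pET-22b(+) in E. coli BL21(DE3). Six replicate transformations were grown overnight at 37°C or 30°C on LB agar with or without 25 μg/mL kanamycin, plus 100 μg/mL carbenicillin, 50 μM IPTG and 0.2% rhamnose. Pooled colonies were amplicon-sequenced on an Illumina HiSeq 2500.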

± gives the uncertainty stated by the source.

Take AACUAGCAAUAUUACGAGGA: the “self-splicing fitness (ln)” value by setting is: (30 °C) -1.71 ± 0.1; (37 °C) -1.89 ± 0.11.

Regarding AACUAGCAAUAUUACGAUCU, the “self-splicing fitness (ln)” value is, setting by setting: (30 °C) -0.146 ± 0.082; (37 °C) 0.426 ± 0.098.

For the sequence AACUAGCAAUAUUACGAUGG, the “self-splicing fitness (ln)” value is, setting by setting: (30 °C) -2.49 ± 0.17; (37 °C) -0.739 ± 0.14.

On to AACUAGCAAUAUUACGCAAC, for which the “self-splicing fitness (ln)” value is -3.49 ± 0.21 (30 °C) and -2.08 ± 0.18 (37 °C).

In the case of AACUAGCAAUAUUACGCAGU, the “self-splicing fitness (ln)” value by setting is: (30 °C) -4.36 ± 0.41; (37 °C) -1.96 ± 0.21.

As for AACUAGCAAUAUUACGCGAA, the “self-splicing fitness (ln)” value is, setting by setting: (30 °C) -2.81 ± 0.16; (37 °C) -1.05 ± 0.12.

For the sequence AACUAGCAAUAUUACGCGUA, the “self-splicing fitness (ln)” value was -1.19 ± 0.09 (30 °C) and -0.289 ± 0.083 (37 °C).

Take AACUAGCAAUAUUACGCUAU: the “self-splicing fitness (ln)” value is -2.88 ± 0.14 (30 °C) and -1.84 ± 0.13 (37 °C).

With AACUAGCAAUAUUACGCUCC, the “self-splicing fitness (ln)” value is -1.39 ± 0.15 (30 °C) and -0.732 ± 0.19 (37 °C).

Take AACUAGCAAUAUUACGCUUG: the “self-splicing fitness (ln)” value was -2.18 ± 0.11 (30 °C) and -1.16 ± 0.12 (37 °C).

For the sequence AACUAGCAAUAUUACGGAGC, the “self-splicing fitness (ln)” value reads like this: (30 °C) -1.86 ± 0.15; (37 °C) -0.604 ± 0.15.

Turning to AACUAGCAAUAUUACGGGAU, the “self-splicing fitness (ln)” value by setting is: (30 °C) -1.53 ± 0.079; (37 °C) -0.855 ± 0.081.

In the case of AACUAGCAAUAUUACGGGGC, the “self-splicing fitness (ln)” value runs as follows: (30 °C) -3.61 ± 0.23; (37 °C) -3.1 ± 0.35.

As for AACUAGCAAUAUUACGUAAA, the “self-splicing fitness (ln)” value by setting is: (30 °C) -1.87 ± 0.11; (37 °C) -1.01 ± 0.11.

As for AACUAGCAAUAUUACGUACA, the “self-splicing fitness (ln)” value was -1.19 ± 0.099 (30 °C) and -0.373 ± 0.13 (37 °C).

Regarding AACUAGCAAUAUUACGUCUC, the “self-splicing fitness (ln)” value is -3.37 ± 0.16 (30 °C) and -2.54 ± 0.15 (37 °C).

As for AACUAGCAAUAUUACGUGAC, the “self-splicing fitness (ln)” value runs as follows: (30 °C) -2.92 ± 0.12; (37 °C) -1.38 ± 0.12.

In the case of AACUAGCAAUAUUACGUUGG, the “self-splicing fitness (ln)” value is -3.74 ± 0.22 (30 °C) and -3.5 ± 0.22 (37 °C).

On to AAGAAGCAAUAUUACGAAUC, for which the “self-splicing fitness (ln)” value (30 °C) is -2.91 ± 0.15 and the “self-splicing fitness (ln)” value (37 °C) is -2.64 ± 0.26.

As for AAGAAGCAAUAUUACGAAUG, the “self-splicing fitness (ln)” value is, setting by setting: (30 °C) -2.19 ± 0.13; (37 °C) -1.66 ± 0.14.

Regarding AAGAAGCAAUAUUACGACCC, the “self-splicing fitness (ln)” value is -1.01 ± 0.16 (30 °C) and -0.395 ± 0.17 (37 °C).

On to AAGAAGCAAUAUUACGAGAC, for which the “self-splicing fitness (ln)” value is -4.15 ± 0.29 (30 °C) and -2.85 ± 0.25 (37 °C).

On to AAGAAGCAAUAUUACGAGCU, for which the “self-splicing fitness (ln)” value (30 °C) is -0.998 ± 0.087 and the “self-splicing fitness (ln)” value (37 °C) was -1.22 ± 0.11.

As to AAGAAGCAAUAUUACGAGGC, the “self-splicing fitness (ln)” value (30 °C) was -3.86 ± 0.42 and the “self-splicing fitness (ln)” value (37 °C) was -2.48 ± 0.33.

For AAGAAGCAAUAUUACGAUUU, the “self-splicing fitness (ln)” value was -0.181 ± 0.065 (30 °C) and 0.764 ± 0.1 (37 °C).

As to AAGAAGCAAUAUUACGCAAU, the “self-splicing fitness (ln)” value runs as follows: (30 °C) -2.08 ± 0.18; (37 °C) -1.52 ± 0.2.

For the sequence AAGAAGCAAUAUUACGCCGC, the “self-splicing fitness (ln)” value is -2.91 ± 0.25 (30 °C) and -2.63 ± 0.26 (37 °C).

Regarding AAGAAGCAAUAUUACGCCGU, the “self-splicing fitness (ln)” value (30 °C) was -1.1 ± 0.13 and the “self-splicing fitness (ln)” value (37 °C) was -0.777 ± 0.15.

On to AAGAAGCAAUAUUACGCGAA, for which the “self-splicing fitness (ln)” value (30 °C) is -2.18 ± 0.1 and the “self-splicing fitness (ln)” value (37 °C) is -0.344 ± 0.093.

Take AAGAAGCAAUAUUACGCGCU: the “self-splicing fitness (ln)” value by setting is: (30 °C) -0.931 ± 0.11; (37 °C) 0.0502 ± 0.12.

With AAGAAGCAAUAUUACGCGGA, the “self-splicing fitness (ln)” value (30 °C) is -2.71 ± 0.16 and the “self-splicing fitness (ln)” value (37 °C) is -0.37 ± 0.12.

With AAGAAGCAAUAUUACGCUGU, the “self-splicing fitness (ln)” value (30 °C) was -2.63 ± 0.13 and the “self-splicing fitness (ln)” value (37 °C) was -1.28 ± 0.12.

In the case of AAGAAGCAAUAUUACGCUUC, the “self-splicing fitness (ln)” value (30 °C) was -3 ± 0.26.

Regarding AAGAAGCAAUAUUACGGACU, the “self-splicing fitness (ln)” value was 0.093 ± 0.073 (30 °C) and -0.443 ± 0.083 (37 °C).

On to AAGAAGCAAUAUUACGGGAC, for which the “self-splicing fitness (ln)” value runs as follows: (30 °C) -2.85 ± 0.18; (37 °C) -2.63 ± 0.44.

AAGAAGCAAUAUUACGGUGA: the “self-splicing fitness (ln)” value by setting is: (30 °C) -1.11 ± 0.078; (37 °C) -0.329 ± 0.092.

AAGAAGCAAUAUUACGUAGC: the “self-splicing fitness (ln)” value (30 °C) is -3.08 ± 0.25 and the “self-splicing fitness (ln)” value (37 °C) is -2.32 ± 0.31.
